The values below come from patent US20240148892A1.

For the experiment, the target named is human full-length B7H3 expressed on MCF-7 cells (human) (UniProt Q5ZPR3). Kind of experiment: cell-based or functional assay.
Sequence of human full-length B7H3 expressed on MCF-7 cells (human) (Q5ZPR3 29-534 limits assumed): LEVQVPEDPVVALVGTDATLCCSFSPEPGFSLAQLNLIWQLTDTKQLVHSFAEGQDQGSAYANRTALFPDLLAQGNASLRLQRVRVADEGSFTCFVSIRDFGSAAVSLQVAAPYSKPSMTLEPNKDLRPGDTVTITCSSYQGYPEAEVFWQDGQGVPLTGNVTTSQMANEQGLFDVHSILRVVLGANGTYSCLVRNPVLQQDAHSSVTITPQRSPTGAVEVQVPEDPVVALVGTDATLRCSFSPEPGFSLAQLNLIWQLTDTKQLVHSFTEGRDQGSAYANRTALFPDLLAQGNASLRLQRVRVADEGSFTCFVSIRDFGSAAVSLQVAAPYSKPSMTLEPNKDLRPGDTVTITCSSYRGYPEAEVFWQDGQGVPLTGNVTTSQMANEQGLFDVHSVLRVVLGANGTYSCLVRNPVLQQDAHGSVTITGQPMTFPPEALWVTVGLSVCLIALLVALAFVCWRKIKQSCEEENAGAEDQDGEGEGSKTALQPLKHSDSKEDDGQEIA

B1: reference ADC-1 (Daiichi Sankyo, DS7300) (protein, INN chains, looked up)
VH: QVQLVQSGAEVKKPGSSVKVSCKASGYTFTNYVMHWVRQAPGQGLEWMGYINPYNDDVKYNEKFKGRVTITADESTSTAYMELSSLRSEDTAVYYCARWGYYGSPLYYFDYWGQGTLVTVSS
VL: EIVLTQSPATLSLSPGERATLSCRASSRLIYMHWYQQKPGQAPRPLIYATSNLASGIPARFSGSGSGTDFTLTISSLEPEDFAVYYCQQWNSNPPTFGQGTKVEIK
modifications: deruxtecan payload
As for B1, the IC50 of inhibition of proliferation, A375 melanoma cells (CellTiter-Glo) turned out to be 315 nM; the IC50 of inhibition of proliferation, A549 lung cancer cells (CellTiter-Glo) came to 378 nM; the IC50 of inhibition of proliferation, Calu-6 lung cancer cells (CellTiter-Glo) was determined as 428 nM; the IC50 of inhibition of proliferation, HT-29 colorectal cancer cells (CellTiter-Glo) came out at 1140 nM. The same molecule showed an IC50 of inhibition of proliferation, MCF-7 breast cancer cells (CellTiter-Glo) of 435 nM; an IC50 of inhibition of proliferation, NCI-H358 lung cancer cells (CellTiter-Glo) of 123 nM; an IC50 of inhibition of proliferation, NCI-H1568 lung cancer cells (CellTiter-Glo) of 32.8 nM; an IC50 of inhibition of proliferation, PC-3 prostate cancer cells (CellTiter-Glo) of 959 nM. The molecule further had an IC50 of inhibition of proliferation, U87 MG brain cancer cells (CellTiter-Glo) of 354 nM.
